The values below come from the DeepSol protein solubility set.

A short description of this data set: soluble on expression in E. coli; label from the status in PepcDB or PDB records.
“MSLKRIVVANDLVGVGKVALSASIPLMASCLLEQVLLPTCLLSSHTGGGQNPVKHTTSSILDVFLTDWDNKRIKFDGIFIGYFTTTRDGQKLLEWLSRKQLPLILDPIMADNGKLYQGFSQKHIEIMIKLTQKAELVLPNISEACLLTQTAYLAKNYDEEDIRQVARKLAKLGPKQVVISGISFEEGSIGFAYYQSDSDQLTFHFGKQFPYHFYGTGDIASAIITAGFYYQLPLTQILDLVVSFLEKVLQNTLTLKRDLILGVAYESHLNYLTKSFKKLLEEKNVISKISEGHHHHHH”: the “soluble on expression in E. coli” value was “soluble”.

Consider “MTDQLRLMAVHAHPDDESSKGAATMAKYVSEGVDVLVVTCTGGERGSILNPKLQGDAYIEENIHEVRRKEMDEAREILGVGQEWLGFVDSGLPEGDPLPPLPEGCFALEDVDKAAGELVRKIRSFRPQVITTYDENGGYPHPDHIMTHKITMVAFEGAADTEKYPESEYGTAYQPLKVYYNQGFNRPRTEALHHALLDRGLESPYEDWLKRWSEFERKERTLTTHVPCADFFEIRDKALIAHATQIDPEGGWFRVPMEIQKEVWPTEEYELAKSLVETSLPEDDLFAGIRDNALEHHHHHH”, for which the “soluble on expression in E. coli” value is reported as “not soluble”.

On to “MGSDKIHHHHHHMNEADVTKFVNNARKTLTDAQLLCSSANLRIVDIKKKLSSWQLSISKLNFLIVGLRQQGKFLYTILKEGIGTKLIQKQWNQAVLVVLVDEMKYWQYEITSKVQRLDGIVNELSISEKDDTDPSKLGDYISRDNVNLLNDKLKEVPVIERQIENIKLQYENMVRKVNKELIDTKLTDVTQKFQSKFGIDNLMETNVAEQFSRELTDLEKDLAEIMNSLTQHFDKTLLLQDKKIDNDEREELFKVVQGDDKELYNIFKTLHEVIDDVDKTILNLGQFLQAKIKEKTELHSEVSEIINDFNRNLEYLLIFKDISNLIDSFKNSCTQDIQTTKELCEFYDNFEESYGNLVLEAKRRKDVANRMKTILKDCEKQLQNLDAQDQEERQNFIAENGTYLPETIWPGKIDDFSSLYTLNYNVKNP”, for which the “soluble on expression in E. coli” value was “not soluble”.

In the case of “MQVSLPREDTVYIGGALWGPATTWNLYAPQSTWGTDQFMYLPAFQYDLGRDAWIPVIAERYEFVDDKTLRIYIRPEARWSDGVPITADDFVYALELTKELGIGPGGGWDTYIEYVKAVDTKVVEFKAKEENLNYFQFLSYSLGAQPMPKHVYERIRAQMNIKDWINDKPEEQVVSGPYKLYYYDPNIVVYQRVDDWWGKDIFGLPRPKYLAHVIYKDNPSASLAFERGDIDWNGLFIPSVWELWEKKGLPVGTWYKKEPYFIPDGVGFVYVNNTKPGLSDPAVRKAIAYAIPYNEMLKKAYFGYGSQAHPSMVIDLFEPYKQYIDYELAKKTFGTEDGRIPFDLDMANKILDEAGYKKGPDGVRVGPDGTKLGPYTISVPYGWTDWMMMCEMIAKNLRSIGIDVKTEFPDFSVWADRMTKGTFDLIISWSVGPSFDHPFNIYRFVLDKRLSKPVGEVTWAGDWERYDNDEVVELLDKAVSTLDPEVRKQAYFRIQQIIYRDMPSIPAFYTAHWYEYSTKYWINWPSEDNPAWFRPSPWHADAWPTLFIISKKSDPQPVPSWLGTVDEGGIEIPTAKIFEDLQKATMHHHHHH”, the “soluble on expression in E. coli” value was “soluble”.

As for “MSLKICNFRAHYSPTMLSYVIIFMVEKMNYIKINLKLNNPLAFWANFSESERFFWFDPQKETFVIGCERLKAIDLEHDKFSDYTYLFHSQTFFDDIKGELWENFGGETIAFKHYFVVNKENSYTLTCDSPREIPEITIPKFKHQLTEKASDFSAWQELFYAIQKNFADGKSRKIVASRELEFTSQTSFELESIIQNLLDNNPNAFIFAYQKGKRIFLGASPEILVQKENDQLLSYALAGTFPKTMENAGQKLLTDPKNLLEHDIVVQKIKRNLLEKAETVTVGTTELMELKNVYHLRTILSAKNSELSLIDWTKQLHPTPALGGEPRHEALEFLRKHENHERGLYAAPLGLIDSKGNGTMIVGIRSALIVDKKLYAYAGCGIIPSSDALEEFRETKVKLKTILEALEGHHHHHH”, the “soluble on expression in E. coli” value is recorded as “not soluble”.

On to “EDRPSKAPSFWYKIDPSHTQGYRTVQLVWKTLPPFEANGKILDYEVTLTRWKSHLQNYTVNATKLTVNLTNDRYLATLTVRNLVGKSDAAVLTIPACDFQATHPVMDLKAFPKDNMLWVEWTTPRESVKKYILEWCVLSDKAPCITDWQQEDGTVHRTYLRGNLAESKCYLITVTPVYADGPGSPESIKAYLKQAPPSKGPTVRTKKVGKNEAVLEWDQLPVDVQNGFIRNYTIFYRTIIGNETAVNVDSSHTEYTLSSLTSDTLYMVRMAAYTDEGGKDGPEFTFTTPK”, for which the “soluble on expression in E. coli” value was “soluble”.

Consider “MGSDKIHHHHHHMNDYIIEMLNITKEFPGIIANDNITLRLKKGEIHALLGENGAGKSTLMSVLFGLYQPEKGEIRKNGNTVKINNPNDANALGIGMVHQHFKLVEIFTVLENIILGVEPHALGFLQKKKAREKVVELSKQYGLEVNPDALIEKISVGMQQRVEILKMLYRDNEILIFDEPTAVLTPQEIDELMEIMRRFAKEGKSILFITHKLNEIMAVADRCTVLRKGQYVGTVDIKDTTKEELSRMMVGRDVSFRVQKETMTPGRVVLSVRNVSVPSKTSKKNAVSNVSFDVRAGEIVCLAGIDGNGQTEFVSALTGLERHTSGTITLCDQDISKASVRTRSQAGMSHIPEDRHKYGLVLDYTLEDNLVIQRYWQPQFQRFGFIRRKAVRSYAEGLIKQYDVRSGQGPLTIARSMSGGNQQKTIIGREIDKDHELLVAVQPTRGLDVGAIEYIHKQLVARRNAGKAVLLVSLELDEVMNVSDRILVMYEGEIVGELDPKTTTVQELGLYMSGAKRNLKEGSHAG”, for which the “soluble on expression in E. coli” value is given as “not soluble”.

As to “MKIAIAGAGAMGSRFGLMLKQGGNDVLLIDGWQEHINAIKENGLKANYNGEEITVKVSIVNQNEVPTGEQFDLIILFTKAMQLEKMLQDVKPLIADHTEVLCLLNGIGHEDVIEKFVPMEKIFIGNTMWTAGLEGPGKAKLFGSGSVELQNLGIGQEESAKKLAETLSASGLNAKYSDNIHYSIYRKACVNGTMNGLCTILDVNMAGLGATKPAHDMVVTIVNEFAAVAAKENVNLDIPEVIEHVETCFDPTTIGMHFPSMHQDLIKNNRLTEIDYINGAISRKGKKYGVVTPYCDFLTQLVHSKEEILGAK”, the “soluble on expression in E. coli” value was “not soluble”.

Take “ISVLDLTPVSTGQQPGEALRHTLELAEVADSYQYTRFWIAEHHNSGAFVSAATEILIALAAARTGRIRVGSGGVMLPNHSPLKVAENFMSLEALFPGRIDLGLGRAPGTDGRTALALRRSREALAADDFPTQIALLRAFAGETPWPAGSVFDGVLAEPRGVKLPPLWILGSSLYGAQLAGELGVGYAFAYHFSQEDPAVAVQTYHRHFRPGPLAEPYAILGVNALAAPTEDEARDLSLTSAALSLGILSGQRGVLRSPEEARQWLQEMDTDPAKLLKKARIGTPEQVWASLQELGESTGAQEMLVTTYAHDPLKRQQSYRLLAQ”: the “soluble on expression in E. coli” value is “not soluble”.

In the case of “MKRKKPTIHDVAAKAGVGLGTVSRVLNDHPAVRHETRARVLRAMEELGYAPNPHARRIAGGRSYTVSVLLPFVATEFYRRLVEGIEGVLLEQRYDLALFPILSLARLKRYLENTTLAYLTDGLILASYDLTERFEEGRLPTERPVVLVDAQNPRYDSVYLDNRLGGRLAGAYLARFPGPIFAIAVEEEPDRAFRRTVFAERMAGFQEALKEAGRPFSPDRLYITRHSQEGGRLALRHFLEKASPPLNVFAGADQV”, the “soluble on expression in E. coli” value was “soluble”.

Regarding “MVDKREEVMHVAMFPWLAMGHLLPFLRLSKLLAQKGHKISFISTPRNIERLPKLQSNLASSITFVSFPLPPISGLPPSSESSMDVPYNKQQSLKAAFDLLQPPLKEFLRRSSPDWIIYDYASHWLPSIAAELGISKAFFSLFNAATLCFMGPSSSLIEEIRSTPEDFTVVPPWVPFKSNIVFRYHEVTRYVEKTEEDVTGVSDSVRFGYSIDESDAVFVRSCPEFEPEWFGLLKDLYRKPVFPIGFLPPVIEDDDAVDTTWVRIKKWLDKQRLNSVVYVSLGTEASLRHEEVTELALGLEKSETPFFWVLRNEPKIPDGFKTRVKGRGMVHVGWVPQVKILSHESVGGFLTHCGWNSVVEGLGFGKVPIFFPVLNEQGLNTRLLHGKGLGVEVSRDERDGSFDSDSVADSIRLVMIDDAGEEIRAKAKVMKDLFGNMDENIRYVDELVRFMRSKGSSSSS”, the “soluble on expression in E. coli” value is given as “not soluble”.

As for “MGHHHHHHMEARNMTPFTYFSLPMQKLFLRNQAAVRNKPYAKYFRSEMRVPLSAVRKIQQGPMALEDTLTPSIEDINRLLEPDFVSEESGYALLPGPMAYVQSRKFFPGCTAQMFKWWFIWHPAESERYTLWFPYAHVSNPCVHHQRLRDESLSFEERLYGNTFCASEYVGDRLMHLHIDFQQPASLGLNTDLYREAKIDGSVSALMSLADHPEVPVSLMVHLFKEVPDGMYLTSRYWVGAHPSMARFPGAEKAASLLKENGFGEAELETLAYEFAVHDMCEFNHLASFLPDLYREFGTPAA”, the “soluble on expression in E. coli” value is “soluble”.

As to “GPGSMCSPIADNADMIVPSADTCCPNTVFERVLRCACIVMRVGDDPGYIWTPQRLGAGSFGTVTLAYRHEGDAVWRKTAVKRISLRKETRLSAVLEKVRCTGREVALCRRAGVSPHVVPMYKPWFDCREGVIALPMDAGDFSLEQYAVHCGFRFPPLALLSMCAQCARAVAHLHRRGVVHRDVKPDNFVVNVFDTVGGAGAGGDGDCGEARPPFVRILDFGLACGVEEVEQELKRCVGTPHYMAPETFSHLCDCDVPAACDVWSLGVTLFRLATGVFPVFDQDVTASWPPASASSARLGVPRLRSPWPRVVERCPAPW”, the “soluble on expression in E. coli” value was “not soluble”.

Take “MSLGMKSNEYNKGNYEAHKAYYAGTYEYGTDYDVEDDLYSLEFDDELLNDELEYLEDIGEPFYYEDLDNDFDNTLENQVEKDTYAALENKLRKYISKYNCYFGIYFVDLESGKEFGINDTEEFFAASTFKIPLNLYVYDMIRKGMLDPMTSLEYTEEDFEGGTGIIWNNESFGKTFTIKELLRLSIVYSDNVAVNMLLRCVGKANVKEYMRRLGGVVVDDGKNVSCPRDMAMYLKEVYELSENGDPWGRELVQNMINTKFYDRLPVLLPKNLKIAHKTGNYTGVVHDVGIVYAEKPYIVVVMTKNVKNGQSANKAIANISKMIYDYVVKQSGKDEGHHHHHH”: the “soluble on expression in E. coli” value was “soluble”.

As to “WKQKVGYPTNQTWGYIAEGLFVDDNEVANSPVQFGEYGAGDIKYRDVNKDGKITDLDQVPIGYPKEPEIVYGFGASYGYKNWDISVFFQGLARESFWIDYNNVSPYFNTVDTKVVGNRVGHNALAKFIADSHWSEDNRDAYAVWPRLSPTSIENNSKTSTWFMRDGSFLRLKQLEIGYTIPEKVTNKVGIKNLRFYVTGNNLLCFSKFKLWDPEMAGAGLGYPVQRVYNVGLNLTF”, the “soluble on expression in E. coli” value is listed as “not soluble”.

For the sequence “MTIDLNAMLAKRAEVLGEGNKFDVKLGNKTFYFVAPELASSEWNDRHQAFLEDIRDGLMTSATAREEFLGLALEDQAEEFAEAADNIGVDPFIIAQMAFQEHAEYVGKTQSQKSLNRTQRRAKQR”, the “soluble on expression in E. coli” value is “not soluble”.

Turning to “MNASLYQQYVQAKAEHPGKYARDLATLMGISEAELTHSRVGHDAKRLQSDARALLAALESVGEVKAITRNTYAVHEQVGRYENQHLNGHAGLILNPRALDLRLFLNQWASAFTLTEETRHGVRHSIQFFDHQGDALHKVYVTEQTDMSAWEALLAQFIIPENPALQLEPLSTPEAVEPTADDATVDSEWRAMTDVHQFFQLLKRNNLTRQQAFRAVGDDLAYQVDNNSLTQLLHIAQQDQNEIMIFVGNRGCVQIFTGLIEKVTPHNEWINVFNQRFTLHLIETAIAESWITRKPTKDGFVTSLELFAADGTQLAQLYGQRTEGQPEQNQWREQIARLINKDIAA”, the “soluble on expression in E. coli” value is listed as “not soluble”.

As to “MGSDKIHHHHHHMTGTANYVEFEPTRMGLYEASIRVKHECPYRRISERYPDLTIREWPLSDCQVLEITTETTPTDELLDEINEIGTVLYESADDNGYHVVTQSCLCSLEDSVIDRFEEHNCLYQSPTIYRQGWEHYTVVAFDSEDVRELLDSLRSDREIELLSKTSISETQIPHSMLAPANQLFEDITDRQLAALQLALESGYYEQPRKTSLRDLAERTAVARSTYEEHLRKAENKLLTNAGQFLRLVTATSTTNPLGVESGRRTEQTAD”, the “soluble on expression in E. coli” value is “not soluble”.
